From article PMC10906455, “Disruption of CFAP418 interaction with lipids causes widespread abnormal membrane-associated cellular processes in retinal degenerations” (JCI Insight, 2024)

Target: mCherry-RAB28 WT (UniProt Q99KL7 1-221)
Experiment: co-IP; HEK293 cells cotransfected with FLAG-CFAP418 and mCherry-RAB28 WT, T26N, Q72L or mCherry; mCherry proteins 'pulled down', FLAG-CFAP418 seen only in the overexposed immunoblot
Settings: partners not purified

fraction of CFAP418 pulled down: ~0.1%
B1: FLAG-CFAP418 (natural protein)
chain: MAKDLDELLDEVETKFCRLDPLRLDLGERPKGDGGGGSHSGDRNGAQEKETLRSTETFKKEDDLDSLINEIFEEPDFDRKSFQKFKSKSSSNTCVRAPMQGVSKSCSPVYLSGSAIPCGIGTNTSQRACDRLRCVACDFRIVSYNDYMWDKSCDYLFFRNNMPEFHKLKTKLIEKKGARAYACQCSWRTVEELTDLQTDHQLRWVCGKH
notes: CFAP418; source: HEK293, cotransfected, in lysate
